Test results from the DeepSol protein solubility set.

test: soluble on expression in E. coli; label from the status in PepcDB or PDB records

For “MSLADTYRPEISVAGFIPLPDCGRQVYNFNPGWRFFKGDIRGAEAVNFDDRSWEVVSTPHTVELMPAEGSGCRNYQGPAWYRKHFVVPTATKGQRVLLHFEAAMGKQVLYLNGKRVQEHLGGYLPFTLDLTANGVQAGDSCLLAVYTDNSNDKSYPPGKPQYTLDFAYHGGIYRDVWMIAKSPVAITDAIDSRTVGGGGVFVHFDKISEKSAQVYVETEIQNDNTRSESVTIETTLTDAEGNVIKRTSGKLSLNSGEKKSIRQQMEVRNPKLWSPDAPYLYRVQSRIKKGNRSIDGGTTRIGIRLAEFRGKEGFWLNGKPFGQLVGANRHQDFAYVGNALPNSQQWRDAKRLRDAGCTIIRVAHYPQDPSFMDACDELGLFVIVATPGWQYWNKDPKFGELVHQNTREMIRRDRNHPSVLMWEPILNETRYPLDFALKALEITKEEYPYPGRPIAAADVHSAGVKEHYDVVYGWPGDDEKEDKPEQCIFTREFGENVDDWYAHNNNNRASRSWGERPLLIQALSLAKSYDEMYRTTGQFIGGTQWHPFDHQRGYHPDPYWGGIYDAFRQKKYAYEMFRSQSPASLQHPLAECGPMIFLAHEMSQFSDKDVVVFSNCDSIRLSIYDGTKTWTKPVVHAKGHMPNAPVIFENVWDFWEARGYSYTQKNWQKVNMVAEGIIDGKVVCTQKKMPSRRSTKLRLYADTQKVNLVADGSDFIVVVAEVTDDSGNVRRLAKENIVFTVEGEGEIIGDARIGANPRAVEFGSAPLLIRSTRKAGKIKVKAHVQFEGTQAPTAAEMEFESVPAELPFCYDEKEGHHHHHH”, which “soluble on expression in E. coli” value is on record?
The value was “soluble”.

With “MSLAENSLKIWNWSYYIDEALLDEFAAHAGIPRENIVYDEYDDPNVVLSRLEAGKSGYDVVIIPDYILDVAIKEGLLMELNKSLIPNYPHLDEKFKSTPYDPEGRYSAVYMWGTTGFGYRSDLAEKVTTLRQIFDPDYGYLKKYSKKITMLEEPIEVILACKAFLGKSVDDWSDETMQEVKEALIRQKPYLAAYAGANVYVEGLKNGSIYVAHAYNGDIVRLQDEEGVDQASFAIPEEGGTIWTDNMCIPKDAENVELAHEFINFMLDPEVSGRNSDYIKYASPVKEARNYVSEEVLENPAVYVPEDLMKKLWFTPQLDEEARRKIENLMIEVKASTEGHHHHHH” as the sequence, how does the “soluble on expression in E. coli” value read?
Its value is “soluble”.

Which “soluble on expression in E. coli” value does the source give for “MSLAESQLSKLDVNLQSLNPYTFSKTRCIVNLHISDDTKNRDPSTTNGSYSNSQLLSNGEHVCYHFSQDYCVLSIYPVTDAITGKTVVVHLPHETFNDHHTFTMAEEDGCIVMDLILKTGLFLTLRFSLEYLFNRNADINSSWYSLLKPYDFTVRLPDYLYKVNSALSIVYLNDGGLLGLQKTQTSGSDEYDLHPVLFNDNSYFQSFTRFFSHNDSGRENVVSSVSYGDYHLLTLTENCKLRIWDLRTNSVTAQLNLITDPQDKHRKYESIGPYLALLDSVLVVFLPFGNGAFRTFQLSVNNSGGLVLTPRGELIRTNLSTASIWSLVDTKLTKPFELNIETSYLQMVVLWKSNTSIKLQILNFETEALDKHSWVEASNKSLPDILDNDILGDNFEQSLLDLKAHYTPAIYEEAQRILSANGIIFVPSQQNNDEYLSNLESILKDLKKHHDEPSSLTLYNGEVVMVNTLYLYNHFVYKINSKLESFYYNLTSEGHHHHHH” here?
Its value is “soluble”.

With “MSLAETFWVDVQRAEGRPLNLELIAPLSVGSKSVEEVENVAIRVELTNGCVGWGEVPVFPSVTAVNHTVALAKAMEACEFLSCSSPMVLSLVLSEIGGILPGPELASVRAGVEMALIDAVANSIDVPLWRLFGGVANTLTTGVTLPTVFPAEAYSQGASKYCQSGFRTFKLKIGKNTSAEIKALQAIQAAHPLCSLILDANEAYTCQEAIEILQKLYDSGITPAVLEQPVHRSDWKGLGEVSNFAREKKYGISVAVDETCQSLIEVRRVIKENLADAINIKLAKFGVMGALEIIELARESGVKLMISGTVESRLATGFAAHLAAGLGCFKSVVLDMPFLLSEDPVICGYEASGPVYKFLNVRGQGGFLKWDFSSWEGHHHHHH” as the sequence, how does the “soluble on expression in E. coli” value read?
Its value is “soluble”.

For “MSLAEVAEVSEQDFGEILAQTRQFVRTAVVPREQEILDGDRVPDDLRDQARKMGLFGYAIPQQWGGLGLNLMQDVELAMELGYTSLALRSMFGTNNGIAGQVLVGFGTEAQKARWLEPMAAGDVVASFALTEPGAGSNPAGLRTKAVADGDNWVISGQKRFITNAPVADLFVVFARTRPADDQGPGIAVFLVPADAAGVQVGAKDAKMGQEGAWTADVSFDDVRVGGDALIGGSENIGYRAAMTSLARGRVHIAALAVGAAQRALDESVSYAATATQGGTPIGNFQLVQAMLADQQTEVLAGRALVREAARLWVTGEDRRVAPSAAKLYCTEMAGRVADLAVQVHGGSGYMRGVPVERIYRDVRLLRLYEGTSEIQRLIIGSNLVKAAQREGHHHHHH”, which “soluble on expression in E. coli” value is on record?
The value was “soluble”.

For “MSLAFKPARVIFEQDALKYPMGEKLYRFFRDKGTDVSFAASHNRVSAIPGRTRSEKYFEAKRTLVVGVRRTTAFETCKPSAHFQLPLATSCPGKCEYCYLLTNMGKKPYVRIYVNIEEILSAARGYIEDRKPQVTVFEGAATSDPVPVEPYTGALARAVEFFGGQEYGRFRFVTKFTEVDTLLDVPHNGHTRFRFSINTPEVIRRFEHATPPLAERLAAAWKVAAAGYPLGFLVAPIIMYDGWRDSYRDLFKTAAAGLNGKVYDLTFEFITHRFTKRAKGTILEVFPSTRLDMDEEARAFKFGQFGYGKYVYPKELFSDAKIYFEGLAGEYFPGSKVEYFVEGHHHHHH”, which “soluble on expression in E. coli” value is on record?
The value was “not soluble”.

For “MSLAGDDAVNLTLVTGAPANGGSCVAHHEGRVVFVRYALPGERVRARVTAQRGSYWHAEAFEVIDPSPDRIGSLCSIAGADGAGCCDLAFAAPEAARTLKAQVVANQLERLGRHSWQGEAQPLSDAGPTGWRIRVRLDVGADRRPGFHRYHSGELVTDLDCGQLPVGMLDGLVAADWPPEAQLYVALDDDGERHVVCSVRQGPRNRTRTVTNVVEGAYHAHQRVHRRSWRVPVTAFWQAHRDAAAVYSDLIADWAQPAPGMTAWDLYGGAGVFAAVLGEAVGESGRVLTVDTSRLASGAARAALVDLPQVEVVTGSVRRVLAVQPAGADLAVLDPPRSGAGREVVDLLAGAGVPRLIHIGCEAASFARDIGLYRGHGYAVEKIKVFDAFPLTHYVECVALLTRKVEGHHHHHH”, which “soluble on expression in E. coli” value is on record?
The value was “soluble”.

With “MSLAHGIPSQGKVTITVDEYSSNPTQAFTHYNINQSRFQPPHVHMVDPIPYDTPKPAGHTRFVCISDTHSRTDGIQMPYGDILLHTGDFTELGLPSEVKKFNDWLGNLPYEYKIVIAGNHELTFDKEFMADLVKQDYYRFPSVSKLKPEDFDNVQSLLTNSIYLQDSEVTVKGFRIYGAPWTPWFNGWGFNLPRGQSLLDKWNLIPEGIDILMTHGPPLGFRDWVPKELQRVGCVELLNTVQRRVRPKLHVFGGIHEGYGIMTDGYTTYINASTCTVSFQPTNPPIIFDLPNPQGSEGHHHHHH” as the sequence, how does the “soluble on expression in E. coli” value read?
The value was “soluble”.

Which “soluble on expression in E. coli” value does the source give for “MSLAKISKIEAQKRKGRYNIYLDGKYAFPVAESVLIQFRLMKGTELDEKQIAAIATADQQAKAYSRMLDYLSYQMRTESDIVKKLKEIDTPEEFVEPILKKLRGQQLIDDHAYAASYVRTMINTDLKGPGIIRQHLRQKGIGESDIDDALTQFTPEVQAELAKKLALKLFRRYRNQPERRREQKVQQGLTTKGFSSSVYEMIKDEVVPQPDLEQENDLLAKEAAKQWRRVRRYQGYEREQHFKQTMYRKGFDLDDVQSWLDAQDEGHHHHHH” here?
Its value is “soluble”.

Which “soluble on expression in E. coli” value does the source give for “MSLAKKNYILVIDDDVMMSQTISDFIHGKGYHVIVCNNLEEAFSELSQYKIDLILINFWQPDGTALILLEHLNEEKITTPVIVISNTKEHQSVLECFRMGVLDFVVKPINLEIFWYKVECLLTRVKLQHEVKLQRVELEKMLYEKAREEKMARNLFEHLVNIDNTQFEFVRTFCQASANFSGDIILKGLAPNGNFFLMPEFNSEVRHSTIKQLIGEEGHHHHHH” here?
The value was “soluble”.

Which “soluble on expression in E. coli” value does the source give for “MSLAKVLYITAHPFNELVSNSMAAGKAFIETYQQQHPDDEVKHIDLFETYIPVIDKDVLTGWGKMSNGETLTDDEQMKVSRLSDILEEFLSADKYVFVTPMWNLSFPPVVKAYIDAISIAGKTFKYSAEGPQGLLTDKKVLHIQSRGGYYTEGPAADFEMGDRYLRTIMTFLGVPSYETIIIEGHNAEPHKTEEIKATSINNAEKLATTFEGGSHHHHHH” here?
The value was “soluble”.

Which “soluble on expression in E. coli” value does the source give for “MSLALAIFDLDETLIHGDCATLWSEQMGRLGWVDSESFMRRNHELMDAYSHGKLAMEEFMDFSLEPMSGRTPEEVAHLVEPWVEEVIEPIIFSDACKAIAAHRQAGDRILVISASGTHLVKPIAARLGIDEVLGIELEVQHGVYSGRTVGTLTYREGKITRLLQWLDAEEENLEGATFYSDSRNDLPLLLRVDHPQVVNPDPVLREHAQKAGWPIHHWKEGHHHHHH” here?
Its value is “soluble”.

For “MSLALSTEQKTKMWAMLNQTRGQIGLTAYKDYIFGILFYKYLSEKATHWLNGVLRGENWENVYSQDSVKALNYMKKNLGYAIQPNEFFVDWKKAIDTDRFNIGMMTDTFTHFNQQIAFEAKNDFEGIFDGMRFDSADLGANAQARASVMISMIELLSSPEFDLSGSNDTVSDIYEYLVAQFATVLASDMGQYYTPKEISNVMARILTFGREDMEKFSIFDPTVGSGSLLLTTASYMKNSGRRGVIKYYGQEKDATPYRLSRMNLMMHGIEYNDININHADTLESDWPDGVVDGKDTPRMFDAVMANPPYSAHWNNKDREDDPRWREYGVSPKTKADYAFLLHCLYHLEDNGRMAIILPHGVLFRGASEGRIRKALIDKHQIEAIIGFPDKLFLNTSIPVCVVILRKNRIESDILFVDASKGFEKIKKQNNLRSEDVEKIVDTVINRKEIEKYSHVATLDEIKENDYNLNIPRYVDTFEEEEAIDLVALGNEMVTLNADIKKAETDFLGLLDELAVTPDTKEIIEATKAVFREGHHHHHH”, which “soluble on expression in E. coli” value is on record?
Its value is “soluble”.

For “MSLANFVHEGDLPDGVFADAEIIAIDSETMGLRLRRDPLCVVQLSAGDGDAHVVRLSRPDYDCPNLKALLTNPKVLKLFHFGRFDIAMFELHLGVVTAPVYCTKIASKLARTYTDRHGLKDVTRELLGVELSKVQQSSDWGAPSLSVDQVAYAASDVLHLHGLRLKLNAMLEREGRMALAQHAFDYLPHRASLDLAGWEEMDIFAHSEGHHHHHH”, which “soluble on expression in E. coli” value is on record?
The value was “soluble”.

For “MSLAPALKAEILAQALPYIRKFHGKTIVIKYGGNAMTEEKLKHGFARDVILLKLVGMNPVVVHGGGPQIDDALKKVGKTGTFIQGMRVTDEETMEVVEWVLGGEVQQDIVMLINQYGGQAVGLTGKDGGLIRAKKLKMPDREQPGQFIDIGFVGDIETINPAVVRALQDDAFIPVISPIGFSDDGQAYNINADVVAGKMAEILKAEKLVMMTNIPGVMDKQGNLLTDLSAREIDELFADGTISGGMLPKISSALDAAKSGVNSVHIIDGRIEHSLLLEILTEQAFGTMIRSHEGHHHHHH”, which “soluble on expression in E. coli” value is on record?
The value was “not soluble”.

For “MSLAPINPYPLLQACQRQRVSDGAIAPVLAGTESSDRLLVLIWPQLGDFDSLEYAQWLQREQDQIQQLGLTIRAVGIGDRDSGQRFCEFTGFPADQLFVDPTASLHQELELYPGLQLSIPGFSPAAKAWLNLLLMCAGIGSPGTLAEVLRGYRGDRSAPQLIAAEETVQAAPLPPIKGNFFNLAGGSGFQRPMELATLRLRNMAESLGHWRTYVPDTSYMTQRGGTFLFDRDRQLIYEHRDHGILGFSATMNRPLSFLDNLPTPSTASEGHHHHHH”, which “soluble on expression in E. coli” value is on record?
The value was “soluble”.

Which “soluble on expression in E. coli” value does the source give for “MSLAQSIVVVAEPSHSDLYDLLAVGNAGIRLVSAAGLSTAIGPSDPDIVILDSGTDADGGITLLGEIKALRNDLPVIFLTDSSSEEIVLKAFRKGAREYFRKPVDLHVLQHAVETILALRRMQRERRDPLKRHYSDPINLPDDLPESIGRAVMHIKSNYDCALYLDDLARAAHLSKFHFCRNFKKYIGVSPMRFMNMVKISKAETLLRRADLTISTVAYKLGFNDPSEFTRQFKSITGISPSAFRRSCLSEGHHHHHH” here?
Its value is “not soluble”.
